Results: patent US6187552A, “Method for identifying inhibitors of JAK2/cytokine receptor binding” (Pharmacia & Upjohn Company, priority 1998, dated 2001)

Biological target: JAK2 (Homo sapiens, UniProt O60674)
Test: SPA competition: soluble peptide/streptavidin against peptide 4-coated SPA beads for binding 3H-JAK2
Set-up: Y918N clone error corrected to Tyr
Excerpt: FIGS. 20 A and B illustrate a test of the ability of streptavidin-peptide 4 complexes to compete for binding of 3H-JAK2 to peptide 4-coated SPA beads. For A, #0 is a beads only control. In all reactions with peptide bound to beads, excess peptide 4 [SEQ ID NO:14] was bound to beads before adding soluble samples. The reaction in #1 is peptide 4 [SEQ ID NO:14] bound to beads only, no added peptide 4 [SEQ ID NO:14] or streptavidin. #2 contained soluble peptide 4/streptavidin at a ratio of 1:1. #3 contained soluble peptide 4/streptavidin at a ratio of 4:1. #4 contained 20 μM peptide 4 added as soluble peptide 4. #5 contained 20 μM streptavidin. […] For B, 0 is a beads only control. In all reactions with peptide bound to beads, excess peptide 4 was bound to beads in the presence of 1 mg/ml κ-casein (as described in Materials and Methods of Example 8) before adding soluble samples. The reaction in #1 is peptide 4 bound to beads only, no added peptide 4 or streptavidin. #2 contained peptide 1/streptavidin at a ratio of 4:1 and #3 contained peptide 4/streptavidin at a ratio of 4:1.
The assay was set up in 96-well plates (Wallac, catalog # 1450-401), Turku, Finland, using a total assay volume of 200, μl/well. Triplicate reactions were done for each data point. The buffer used in all the assays was 35 mM sodium phosphate, 150 mM NaCl, pH 8.0, 10% glycerol. Biotinylated peptides were allowed to bind to streptavidin-coated SPA beads (Amersham Life Sciences, Arlington Heights, Ill., catalog # RPNQ0006) with either less than saturating peptide or excess peptide. For 400 μg SPA beads used per reaction, there was the capacity to bind 49 pmole of biotin (given the binding capacity of 121 pmole biotin/mg bead). Under less than saturating conditions, beads and 40 pmole peptide were added to the assay plate well and incubated for one hour with gentle shaking on a Titer plate shaker (Lab-Line Instruments, Inc., Melrose Park, Ill.) at 600 rpm and not washed. Under conditions of excess peptide, beads and peptide (80 pmole of peptide per 400 μg of bead) were mixed in batch with or without 1 mg/ml K-casein added as described in Results and Discussion, incubated for one hour with rotation, washed three times with buffer and aliquotted into wells. ^3 H-JAK2 or ^3 H-NJAK2 and any other components to be tested were added and the reactions were mixed and incubated for one hour in the dark at room temperature. The plates were then read on a MicroBeta (Wallac) set to read scintillation due to tritium.
The ability of excess peptide 4 [SEQ ID NO: 14] to compete for binding of JAK2 was tested. Biotinylated peptide 4 was bound to streptavidin in solution to mimic the conditions of the peptide 4 bound to the beads. It was used at a ratio of 1:1 (peptide 4: streptavidin) and at a ratio of 4:1 to see whether having multiple peptides on one streptavidin molecule might do a better job of binding JAK2 and therefore of competing. […] This could be due to the free streptavidin pulling some of the peptide 4 [SEQ ID NO: 14] off the bead. […] Another SPA was done using peptide 4 [SEQ ID NO:14] or peptide 1 [SEQ ID NO:11] bound to streptavidin at a ratio of 4:1. […] The results are shown in panel B of FIG. 20.

Chain of JAK2 (O60674 3-1132): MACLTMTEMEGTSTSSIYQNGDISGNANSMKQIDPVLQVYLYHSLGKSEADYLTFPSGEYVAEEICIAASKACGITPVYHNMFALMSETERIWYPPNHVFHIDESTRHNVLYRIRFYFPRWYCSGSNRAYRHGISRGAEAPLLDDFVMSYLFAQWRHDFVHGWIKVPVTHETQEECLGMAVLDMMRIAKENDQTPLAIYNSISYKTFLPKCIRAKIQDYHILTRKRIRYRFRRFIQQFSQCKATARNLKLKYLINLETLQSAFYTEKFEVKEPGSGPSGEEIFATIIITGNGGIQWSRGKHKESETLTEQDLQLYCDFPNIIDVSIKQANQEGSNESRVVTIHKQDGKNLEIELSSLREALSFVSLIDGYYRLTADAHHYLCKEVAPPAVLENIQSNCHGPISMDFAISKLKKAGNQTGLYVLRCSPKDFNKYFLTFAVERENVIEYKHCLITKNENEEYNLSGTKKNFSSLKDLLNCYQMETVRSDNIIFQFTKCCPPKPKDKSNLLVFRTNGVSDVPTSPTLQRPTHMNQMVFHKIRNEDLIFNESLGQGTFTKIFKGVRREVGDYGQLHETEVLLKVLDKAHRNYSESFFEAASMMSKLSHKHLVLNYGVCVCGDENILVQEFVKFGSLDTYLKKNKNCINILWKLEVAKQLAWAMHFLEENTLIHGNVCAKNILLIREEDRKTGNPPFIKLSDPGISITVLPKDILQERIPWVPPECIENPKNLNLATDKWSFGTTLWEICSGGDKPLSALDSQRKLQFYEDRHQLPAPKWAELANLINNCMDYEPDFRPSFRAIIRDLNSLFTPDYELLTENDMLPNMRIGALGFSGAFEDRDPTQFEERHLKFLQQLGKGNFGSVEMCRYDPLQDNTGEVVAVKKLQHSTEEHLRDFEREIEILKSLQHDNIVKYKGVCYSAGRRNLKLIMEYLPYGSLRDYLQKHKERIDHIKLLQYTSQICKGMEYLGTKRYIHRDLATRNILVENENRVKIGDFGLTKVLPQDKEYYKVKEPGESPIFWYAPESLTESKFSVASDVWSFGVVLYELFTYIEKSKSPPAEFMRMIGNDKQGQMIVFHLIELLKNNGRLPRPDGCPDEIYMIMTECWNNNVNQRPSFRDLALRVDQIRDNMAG

binding of JAK2 by peptide in solution (conclusion from FIG. 20): binds JAK2 very poorly | competition by peptide in solution, bound to streptavidin or not (conclusion from FIG. 20A): competes poorly
Sequence: GIYGYRLRRKWEEKIPNPSKSHLFQNGSAELWP [peptide 4, βc peptide, N-terminal truncation]
competition for binding of JAK2 (peptide/streptavidin 4:1, beads with 1 mg/ml κ-casein, FIG. 20B): does compete for binding JAK2 but very weakly | competition for binding of JAK2 (soluble peptide 4/streptavidin 1:1 and 4:1, no κ-casein, FIG. 20A): only minimal, if any, competition was seen
